We go through eight proteins from PMC6386767, “Characterization of recombinant fructose-1,6-bisphosphatase gene mutations: evidence of inhibition/activation of FBPase protein by gene mutation” (Bioscience Reports, 2019).

Substrate in the series: O=C(COP(=O)(O)O)[C@@H](O)[C@H](O)[C@H](O)COP(=O)(O)O
The series can be described thus: purified protein, by the assay type. Particulars: apparent Km for substrate FBP, pH 7.5, 37.0 °C.

Setting [1] is: other: enzyme M177A_2 (second clone).

Positions count from the first letter of the chain named. Numbers in names are those of the source.

B1: pig kidney FBPase L73A (Sus scrofa; L74A) (protein)
chain: MTDQAAFDTNIVTLTRFVMEEGRKARGTGEMTQLLNSLCTAVKAISTAVRKAGIAHLYGIAGSTNVTGDQVKKADVLSNDLVINVLKSSFATCVLVSEEDKNAIIVEPEKRGKYVVCFDPLDGSSNIDCLVSIGTIFGIYRKNSTDEPSEKDALQPGRNLVAAGYALYGSATMLVLAMVNGVNCFMLDPAIGEFILVDRDVKIKKKGSIYSINEGYAKEFDPAITEYIQRKKFPPDNSAPYGARYVGSMVADVHRTLVYGGIFMYPANKKSPKGKLRLLYECNPMAYVMEKAGGLATTGKEAVLDIVPTDIHQRAPIILGSPEDVTELLEIYQKHAAK
In the case of B1, where the note is “other: enzyme L73A”, the Km was 5.10 (± 0.3) µM, the Vmax came to 50.5 µM/min, the kcat turned out to be 22.5 s⁻¹ and the kcat/Km was found to be 4.41e+06 M⁻¹ s⁻¹.

B2: pig kidney FBPase M177A (Sus scrofa; M178A) (protein)
chain: B1 chain with A74L, M178A
Consider B2, for which, for the setting “other: enzyme M177A_1”, the Km is listed as 4.20 (± 0.6) µM, the Vmax came out at 26.1 µM/min, the kcat came out at 12.8 s⁻¹ and the kcat/Km stood at 3.1e+06 M⁻¹ s⁻¹. In addition, under setting [1], the Km is 4.80 (± 0.5) µM, the maximal velocity (Vmax) was 23.4 µM/min, the kcat came out at 11.5 s⁻¹ and the kcat/Km was found to be 2.4e+06 M⁻¹ s⁻¹.

B3: pig kidney FBPase M248D (Sus scrofa; M249D) (protein)
chain: B1 chain with A74L, M249D
Take B3: under “other: enzyme M248D”, the Km was 1.25 (± 0.4) µM, the Vmax turned out to be 62.2 µM/min, the kcat was 30.5 s⁻¹ and the catalytic efficiency (kcat/Km) was 2.44e+07 M⁻¹ s⁻¹.

B4: pig kidney FBPase Y113A (Sus scrofa; Y114A) (protein)
chain: B1 chain with A74L, Y114A
For the protein B4, for the setting “other: enzyme Y113A”, the Km is 2.50 (± 0.3) µM, the Vmax is 55.5 µM/min, the kcat worked out at 27.2 s⁻¹ and the kcat/Km came out at 1.09e+07 M⁻¹ s⁻¹.

B5: pig kidney FBPase Y164A (Sus scrofa; Y165A) (protein)
chain: B1 chain with A74L, Y165A
As for B5, for the setting “other: enzyme Y164A”, the Km is given as 5.30 (± 0.6) µM, the Vmax was found to be 27.5 µM/min, the kcat turned out to be 13.5 s⁻¹ and the kcat/Km worked out at 2.6e+06 M⁻¹ s⁻¹.

B6: pig kidney FBPase L56A (Sus scrofa; L57A) (protein)
chain: B1 chain with L57A, A74L
In the case of B6, under “other: enzyme L56A”, the Km was 5.20 (± 0.2) µM, the Vmax turned out to be 52.3 µM/min, the kcat was determined as 25.6 s⁻¹ and the kcat/Km was found to be 4.9e+06 M⁻¹ s⁻¹.

B7: pig kidney FBPase WT (Sus scrofa) (protein)
chain: B1 chain with A74L
On to B7, for which, under “other: enzyme WT”, the Km was 4.80 (± 0.5) µM, the Vmax amounted to 41.8 µM/min, the kcat was 20.5 s⁻¹ and the kcat/Km was 4.3e+06 M⁻¹ s⁻¹.

B8: pig kidney FBPase K112A (Sus scrofa; K113A) (protein)
chain: B1 chain with A74L, K113A
As for B8, for the setting “other: enzyme K112A”, the Km was 3.25 (± 0.2) µM, the Vmax is 54.7 µM/min, the kcat worked out at 26.8 s⁻¹ and the kcat/Km is 8.25e+06 M⁻¹ s⁻¹.

A word on the Vmax: it is the top rate of the reaction or transport when substrate is in excess. What is called kcat is the number of substrate molecules converted per active site and unit of time at saturation. In general, kcat/Km refers to the second-order rate constant that governs catalysis at low substrate concentration.
